Data on two molecules can be found in US20180072770A1, “Influenza Virus Binding Peptides” (priority 2014, published 2018).

No end group written: not given here.

Test [1] concerns the target hemagglutinin of influenza A virus A/Mute swan/Germany/R901/06 K3141 H7N1 (influenza A virus A/Mute swan/Germany/R901/06 K3141 H7N1).
The target is the same in test [2]. The test can be described thus: cell-based or functional assay.
Test [3] concerns the target hemagglutinin of influenza A virus A/Panama/2007/1999 H3N2 (influenza A virus A/Panama/2007/1999 H3N2). The test can be described thus: cell-based or functional assay.

In turn, KKKKFYGYDVFF (not fully specified (C-terminus)) [peptide with SEQ ID NO:28, N-terminal (Lys)4, C-terminal amide] displayed an IC50 in test [1] of 30 µM. In test [2], this molecule yielded a Hemagglutination inhibition (IC50, HAI) of 23 µM and a Mean Ki(HAI), hemagglutination inhibition assay, turkey erythrocytes of 36.5 µM. The Mean Ki(HAI), hemagglutination inhibition assay, human erythrocytes in test [3] came out at 0.1 µM.
The matching figures for KKKKFYDYDVFY (not fully specified (C-terminus)) [reference peptide with SEQ ID NO:1 (FYDYDVFY), N-terminal (Lys)4, C-terminal amide]: 40 µM, 47 µM, 62.5 µM and 16 µM.
